# *1 amine or outer side, *2 acyl side, *3 side chain or, on linkers, in order; H or OH if unused. Side-chain parts run from the residue outwards. The star is where a group is joined. C18 diacid = O=C(O)CCCCCCCCCCCCCCCCC(=O)*; γGlu = O=C(O)[C@H](CCC(=O)[*:2])N[*:1]; Isovaleryl = CC(C)CC(=O)*; Ahx = NCCCCCC(=O)O
# B1: Compound 86 (peptide)
# peptide: Isovaleryl-APEK([Ahx-γGlu-C18 diacid])PEEDATPEEIQRYYASLRHYYNWLTRQRY-NH2
# SMILES: CC[C@H](C)[C@H](NC(=O)[C@H](CCC(=O)O)NC(=O)[C@H](CCC(=O)O)NC(=O)[C@@H]1CCCN1C(=O)[C@@H](NC(=O)[C@H](C)NC(=O)[C@H](CC(=O)O)NC(=O)[C@H](CCC(=O)O)NC(=O)[C@H](CCC(=O)O)NC(=O)[C@@H]1CCCN1C(=O)[C@H](CCCCNC(=O)CCCCCNC(=O)CC[C@H](NC(=O)CCCCCCCCCCCCCCCCC(=O)O)C(=O)O)NC(=O)[C@H](CCC(=O)O)NC(=O)[C@@H]1CCCN1C(=O)[C@H](C)NC(=O)CC(C)C)[C@@H](C)O)C(=O)N[C@@H](CCC(N)=O)C(=O)N[C@@H](CCCNC(=N)N)C(=O)N[C@@H](Cc1ccc(O)cc1)C(=O)N[C@@H](Cc1ccc(O)cc1)C(=O)N[C@@H](C)C(=O)N[C@@H](CO)C(=O)N[C@@H](CC(C)C)C(=O)N[C@@H](CCCNC(=N)N)C(=O)N[C@@H](Cc1c[nH]cn1)C(=O)N[C@@H](Cc1ccc(O)cc1)C(=O)N[C@@H](Cc1ccc(O)cc1)C(=O)N[C@@H](CC(N)=O)C(=O)N[C@@H](Cc1c[nH]c2ccccc12)C(=O)N[C@@H](CC(C)C)C(=O)N[C@H](C(=O)N[C@@H](CCCNC(=N)N)C(=O)N[C@@H](CCC(N)=O)C(=O)N[C@@H](CCCNC(=N)N)C(=O)N[C@@H](Cc1ccc(O)cc1)C(N)=O)[C@@H](C)O
# B2: Compound 87 (peptide)
# peptide: Isovaleryl-APEK([Ahx-γGlu-C18 diacid])PEEDATPEELQRYYVPLRHYYNWLTRQRY-NH2
# SMILES: CC(C)CC(=O)N[C@@H](C)C(=O)N1CCC[C@H]1C(=O)N[C@@H](CCC(=O)O)C(=O)N[C@@H](CCCCNC(=O)CCCCCNC(=O)CC[C@H](NC(=O)CCCCCCCCCCCCCCCCC(=O)O)C(=O)O)C(=O)N1CCC[C@H]1C(=O)N[C@@H](CCC(=O)O)C(=O)N[C@@H](CCC(=O)O)C(=O)N[C@@H](CC(=O)O)C(=O)N[C@@H](C)C(=O)N[C@H](C(=O)N1CCC[C@H]1C(=O)N[C@@H](CCC(=O)O)C(=O)N[C@@H](CCC(=O)O)C(=O)N[C@@H](CC(C)C)C(=O)N[C@@H](CCC(N)=O)C(=O)N[C@@H](CCCNC(=N)N)C(=O)N[C@@H](Cc1ccc(O)cc1)C(=O)N[C@@H](Cc1ccc(O)cc1)C(=O)N[C@H](C(=O)N1CCC[C@H]1C(=O)N[C@@H](CC(C)C)C(=O)N[C@@H](CCCNC(=N)N)C(=O)N[C@@H](Cc1c[nH]cn1)C(=O)N[C@@H](Cc1ccc(O)cc1)C(=O)N[C@@H](Cc1ccc(O)cc1)C(=O)N[C@@H](CC(N)=O)C(=O)N[C@@H](Cc1c[nH]c2ccccc12)C(=O)N[C@@H](CC(C)C)C(=O)N[C@H](C(=O)N[C@@H](CCCNC(=N)N)C(=O)N[C@@H](CCC(N)=O)C(=O)N[C@@H](CCCNC(=N)N)C(=O)N[C@@H](Cc1ccc(O)cc1)C(N)=O)[C@@H](C)O)C(C)C)[C@@H](C)O
# B3: Compound 88 (peptide)
# peptide: Isovaleryl-APEK([Ahx-γGlu-C18 diacid])PEEDATPEELQRQYVSLRHYYNWLTRQRY-NH2
# SMILES: CC(C)CC(=O)N[C@@H](C)C(=O)N1CCC[C@H]1C(=O)N[C@@H](CCC(=O)O)C(=O)N[C@@H](CCCCNC(=O)CCCCCNC(=O)CC[C@H](NC(=O)CCCCCCCCCCCCCCCCC(=O)O)C(=O)O)C(=O)N1CCC[C@H]1C(=O)N[C@@H](CCC(=O)O)C(=O)N[C@@H](CCC(=O)O)C(=O)N[C@@H](CC(=O)O)C(=O)N[C@@H](C)C(=O)N[C@H](C(=O)N1CCC[C@H]1C(=O)N[C@@H](CCC(=O)O)C(=O)N[C@@H](CCC(=O)O)C(=O)N[C@@H](CC(C)C)C(=O)N[C@@H](CCC(N)=O)C(=O)N[C@@H](CCCNC(=N)N)C(=O)N[C@@H](CCC(N)=O)C(=O)N[C@@H](Cc1ccc(O)cc1)C(=O)N[C@H](C(=O)N[C@@H](CO)C(=O)N[C@@H](CC(C)C)C(=O)N[C@@H](CCCNC(=N)N)C(=O)N[C@@H](Cc1c[nH]cn1)C(=O)N[C@@H](Cc1ccc(O)cc1)C(=O)N[C@@H](Cc1ccc(O)cc1)C(=O)N[C@@H](CC(N)=O)C(=O)N[C@@H](Cc1c[nH]c2ccccc12)C(=O)N[C@@H](CC(C)C)C(=O)N[C@H](C(=O)N[C@@H](CCCNC(=N)N)C(=O)N[C@@H](CCC(N)=O)C(=O)N[C@@H](CCCNC(=N)N)C(=O)N[C@@H](Cc1ccc(O)cc1)C(N)=O)[C@@H](C)O)C(C)C)[C@@H](C)O
# B4: Compound 90 (peptide)
# peptide: Isovaleryl-APEK([Ahx-γGlu-C18 diacid])PEEDATPEELQRYYVVLRHYYNWLTRQRY-NH2
# SMILES: CC(C)CC(=O)N[C@@H](C)C(=O)N1CCC[C@H]1C(=O)N[C@@H](CCC(=O)O)C(=O)N[C@@H](CCCCNC(=O)CCCCCNC(=O)CC[C@H](NC(=O)CCCCCCCCCCCCCCCCC(=O)O)C(=O)O)C(=O)N1CCC[C@H]1C(=O)N[C@@H](CCC(=O)O)C(=O)N[C@@H](CCC(=O)O)C(=O)N[C@@H](CC(=O)O)C(=O)N[C@@H](C)C(=O)N[C@H](C(=O)N1CCC[C@H]1C(=O)N[C@@H](CCC(=O)O)C(=O)N[C@@H](CCC(=O)O)C(=O)N[C@@H](CC(C)C)C(=O)N[C@@H](CCC(N)=O)C(=O)N[C@@H](CCCNC(=N)N)C(=O)N[C@@H](Cc1ccc(O)cc1)C(=O)N[C@@H](Cc1ccc(O)cc1)C(=O)N[C@H](C(=O)N[C@H](C(=O)N[C@@H](CC(C)C)C(=O)N[C@@H](CCCNC(=N)N)C(=O)N[C@@H](Cc1c[nH]cn1)C(=O)N[C@@H](Cc1ccc(O)cc1)C(=O)N[C@@H](Cc1ccc(O)cc1)C(=O)N[C@@H](CC(N)=O)C(=O)N[C@@H](Cc1c[nH]c2ccccc12)C(=O)N[C@@H](CC(C)C)C(=O)N[C@H](C(=O)N[C@@H](CCCNC(=N)N)C(=O)N[C@@H](CCC(N)=O)C(=O)N[C@@H](CCCNC(=N)N)C(=O)N[C@@H](Cc1ccc(O)cc1)C(N)=O)[C@@H](C)O)C(C)C)C(C)C)[C@@H](C)O
# B5: Compound 93 (peptide)
# peptide: Isovaleryl-APEK([Ahx-γGlu-C18 diacid])PEEDASPEEIQRYYVQLRHYYNWLTRQRY-NH2
# SMILES: CC[C@H](C)[C@H](NC(=O)[C@H](CCC(=O)O)NC(=O)[C@H](CCC(=O)O)NC(=O)[C@@H]1CCCN1C(=O)[C@H](CO)NC(=O)[C@H](C)NC(=O)[C@H](CC(=O)O)NC(=O)[C@H](CCC(=O)O)NC(=O)[C@H](CCC(=O)O)NC(=O)[C@@H]1CCCN1C(=O)[C@H](CCCCNC(=O)CCCCCNC(=O)CC[C@H](NC(=O)CCCCCCCCCCCCCCCCC(=O)O)C(=O)O)NC(=O)[C@H](CCC(=O)O)NC(=O)[C@@H]1CCCN1C(=O)[C@H](C)NC(=O)CC(C)C)C(=O)N[C@@H](CCC(N)=O)C(=O)N[C@@H](CCCNC(=N)N)C(=O)N[C@@H](Cc1ccc(O)cc1)C(=O)N[C@@H](Cc1ccc(O)cc1)C(=O)N[C@H](C(=O)N[C@@H](CCC(N)=O)C(=O)N[C@@H](CC(C)C)C(=O)N[C@@H](CCCNC(=N)N)C(=O)N[C@@H](Cc1c[nH]cn1)C(=O)N[C@@H](Cc1ccc(O)cc1)C(=O)N[C@@H](Cc1ccc(O)cc1)C(=O)N[C@@H](CC(N)=O)C(=O)N[C@@H](Cc1c[nH]c2ccccc12)C(=O)N[C@@H](CC(C)C)C(=O)N[C@H](C(=O)N[C@@H](CCCNC(=N)N)C(=O)N[C@@H](CCC(N)=O)C(=O)N[C@@H](CCCNC(=N)N)C(=O)N[C@@H](Cc1ccc(O)cc1)C(N)=O)[C@@H](C)O)C(C)C
# B6: Compound 94 (peptide)
# peptide: Isovaleryl-APAK([Ahx-γGlu-C18 diacid])PEADASPEELQRYYVELRHYYNWLTRQRY-NH2
# SMILES: CC(C)CC(=O)N[C@@H](C)C(=O)N1CCC[C@H]1C(=O)N[C@@H](C)C(=O)N[C@@H](CCCCNC(=O)CCCCCNC(=O)CC[C@H](NC(=O)CCCCCCCCCCCCCCCCC(=O)O)C(=O)O)C(=O)N1CCC[C@H]1C(=O)N[C@@H](CCC(=O)O)C(=O)N[C@@H](C)C(=O)N[C@@H](CC(=O)O)C(=O)N[C@@H](C)C(=O)N[C@@H](CO)C(=O)N1CCC[C@H]1C(=O)N[C@@H](CCC(=O)O)C(=O)N[C@@H](CCC(=O)O)C(=O)N[C@@H](CC(C)C)C(=O)N[C@@H](CCC(N)=O)C(=O)N[C@@H](CCCNC(=N)N)C(=O)N[C@@H](Cc1ccc(O)cc1)C(=O)N[C@@H](Cc1ccc(O)cc1)C(=O)N[C@H](C(=O)N[C@@H](CCC(=O)O)C(=O)N[C@@H](CC(C)C)C(=O)N[C@@H](CCCNC(=N)N)C(=O)N[C@@H](Cc1c[nH]cn1)C(=O)N[C@@H](Cc1ccc(O)cc1)C(=O)N[C@@H](Cc1ccc(O)cc1)C(=O)N[C@@H](CC(N)=O)C(=O)N[C@@H](Cc1c[nH]c2ccccc12)C(=O)N[C@@H](CC(C)C)C(=O)N[C@H](C(=O)N[C@@H](CCCNC(=N)N)C(=O)N[C@@H](CCC(N)=O)C(=O)N[C@@H](CCCNC(=N)N)C(=O)N[C@@H](Cc1ccc(O)cc1)C(N)=O)[C@@H](C)O)C(C)C
# Molecular target: T1, human NPY2 receptor (human, UniProt P49146 1-381)
# T1 construct: whole, on cells; also called hNPY2-R; hNPY2R
# T1 sequence (looked up): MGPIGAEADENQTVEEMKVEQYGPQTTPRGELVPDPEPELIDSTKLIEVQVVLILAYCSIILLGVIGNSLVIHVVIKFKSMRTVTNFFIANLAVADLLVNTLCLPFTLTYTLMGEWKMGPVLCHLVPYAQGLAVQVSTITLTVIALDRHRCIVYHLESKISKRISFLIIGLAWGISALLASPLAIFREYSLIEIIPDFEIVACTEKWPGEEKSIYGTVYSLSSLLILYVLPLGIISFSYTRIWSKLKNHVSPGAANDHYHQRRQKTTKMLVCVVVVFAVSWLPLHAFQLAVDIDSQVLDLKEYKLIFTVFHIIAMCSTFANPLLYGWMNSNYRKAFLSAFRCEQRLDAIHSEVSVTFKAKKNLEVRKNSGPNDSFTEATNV
# Experiment: RLB: displacement of 125I-PYY(1-36) from hNPY2R membranes
row,Binder,Ki [nM]
1,B1,4.33
2,B2,22.4
3,B3,16.3
4,B4,8.71
5,B5,1.71
6,B6,0.93

# Reference: patent publication US20260015399A1 (Boehringer Ingelheim, published 2026)
